# Reference: the Human Domainome abundance scans (Beltran et al. 2025)
# ± gives the uncertainty stated by the source.
# B1: Cold shock protein CspB, residues 1 to 66; numbered along this chain, P41016 (parent)
# chain: MQRGKVKWFNNEKGYGFIEVEGGSDVFVHFTAIQGEGFKTLEEGQEVSFEIVQGNRGPQAANVVKL
# B2: Nucleosome-remodeling factor subunit BPTF, residues 2862 to 2918; numbered along this chain, Q12830 (parent)
# chain: TKKDTKLYCICKTPYDESKFYIGCDRCQNWYHGRCVGILQSEAELIDEYVCPQCQST
# Variants of: B1
# Experiment: abundance fitness (aPCA) (normalised: wild type 0, dead -1); higher = more abundant; growth selection in yeast, the domain comes from the species named
# Details: Bacillus caldolyticus
row,Variant,abundance fitness
1,L66Q,0.021 ± 0.057
2,L66H,-0.214 ± 0.11
3,L66T,-0.023 ± 0.057
4,L66V,0.025 ± 0.063
5,L66R,-0.018 ± 0.042
6,L66P,-0.022 ± 0.043
7,L66W,0.004 ± 0.05
8,L66S,-0.016 ± 0.04
9,L66I,-0.044 ± 0.083
10,L66M,-0.018 ± 0.057
11,L66Y,-0.054 ± 0.12

# Variants of: B2
# Experiment: as above
# Details: Homo sapiens
row,Variant,abundance fitness
1,TKKDTKLYCICKTPYDESKFYIGCDRCQNWYHGRCPGILQSEAELIDEYVCPQCQST,-0.983 ± 0.13
2,TKKDTKLYCICKTPYDESKFYIGCDRCQNWYHGRCVGILQSEAELADEYVCPQCQST,-0.176 ± 0.094
3,TKKDTKLYCICKTPYDESKFYIGCDRCQNWYHGRCVGILQSEAELRDEYVCPQCQST,-0.045 ± 0.072
4,TKKDTKLYCICKTPYDASKFYIGCDRCQNWYHGRCVGILQSEAELIDEYVCPQCQST,-0.042 ± 0.076
5,TKKITKLYCICKTPYDESKFYIGCDRCQNWYHGRCVGILQSEAELIDEYVCPQCQST,-0.179 ± 0.065
6,TKKDTKLYCICKTPYDESKFYGGCDRCQNWYHGRCVGILQSEAELIDEYVCPQCQST,-0.649 ± 0.086
7,TKKDTKLYCICKTPYDESKFYFGCDRCQNWYHGRCVGILQSEAELIDEYVCPQCQST,-0.609 ± 0.2
8,TKKDTKLYCICKTPYDESKFYMGCDRCQNWYHGRCVGILQSEAELIDEYVCPQCQST,-0.237 ± 0.12
9,TKKDTKLYCICKTPYDESKKYIGCDRCQNWYHGRCVGILQSEAELIDEYVCPQCQST,-0.192 ± 0.099
10,TKKDTKLYCICKTPYDESKYYIGCDRCQNWYHGRCVGILQSEAELIDEYVCPQCQST,-0.08 ± 0.12
11,TKKDTKLYCICKTPYDESKFYIGCDRCQSWYHGRCVGILQSEAELIDEYVCPQCQST,-0.047 ± 0.074
12,TKKDTKLYCICKTPYDESKFYIGCDRCQFWYHGRCVGILQSEAELIDEYVCPQCQST,-0.307 ± 0.11
13,TKKDTKLYNICKTPYDESKFYIGCDRCQNWYHGRCVGILQSEAELIDEYVCPQCQST,-0.932 ± 0.096
14,TKKDTKLYCICKTPYDESKFYIGCDRCQNWYHGRCVGILQSEAQLIDEYVCPQCQST,-0.086 ± 0.1
15,TKKDTKLYCICKTPYDESKFYIGCDRCQNWYHGRCVGILQSEARLIDEYVCPQCQST,-0.045 ± 0.083
16,TKKDTKLYCICKTPYDESKFYIGCLRCQNWYHGRCVGILQSEAELIDEYVCPQCQST,-0.021 ± 0.061
17,TKKDTKLYCICKTPYDESKFYIGCARCQNWYHGRCVGILQSEAELIDEYVCPQCQST,-0.011 ± 0.078
18,TKKDTKLYCICKTPYDESKFYIGCDRCQNWYHGRCVGILQSEAELIDEYVPPQCQST,-0.919 ± 0.19
19,TKKDTKLYCICKTPYDESKFYIGCDRCQNWYHGRCVGILQSEAELIDEYVCPQCQSH,-0.172 ± 0.32
20,TKKDTKLYCICKTPYDESKFYIGCDRCQNWYHGRTVGILQSEAELIDEYVCPQCQST,-0.933 ± 0.12
21,TKKDTKLYCICKTPYDESKFYIGCDRCQNWYHGRDVGILQSEAELIDEYVCPQCQST,-0.931 ± 0.17
22,TKKDTKLYCICKTPYDESKFYIGCDRCQNWYHGRQVGILQSEAELIDEYVCPQCQST,-0.804 ± 0.11
23,TKKDTKLYCICKTPYDESKFYIGCDRCQNWYHGRCVGILQSCAELIDEYVCPQCQST,-0.129 ± 0.23

row,Variant,abundance fitness
1,TKKDTKLYCICKTPYDESKFYIGCDRCQNWYHGRCVNILQSEAELIDEYVCPQCQST,-0.158 ± 0.18
2,TKKDTKLYCICKTPYDESKFYIGCDRCQNWYHGRCVKILQSEAELIDEYVCPQCQST,-0.009 ± 0.1
3,TKKDTKLYCICKTPYDESKFYIGCDRCQNWYHGRCVMILQSEAELIDEYVCPQCQST,-0.359 ± 0.12
4,TKKDTKLYCICKTPYDESKFYIGCDRCQNWYHGRCVHILQSEAELIDEYVCPQCQST,-0.157 ± 0.13
5,TKKDTKLYCICKTPYDESKFYIGCDRCQNWYHGRCVGILQSEAELIDEYVCPQCQFT,-0.063 ± 0.22
6,TKKDTKLYCICKTPYDESKFYIGCDRCQNWYHGRCVGILQSEAELIDEYVCPQCQWT,-0.554 ± 0.47
7,TKKDTKLYCICKTPYGESKFYIGCDRCQNWYHGRCVGILQSEAELIDEYVCPQCQST,-0.564 ± 0.1
8,TKKDTKLYCICKTPYDESKFYIGCDRTQNWYHGRCVGILQSEAELIDEYVCPQCQST,-0.871 ± 0.1
9,TKKDTKLYCICKTPYDESKFYIGCDRWQNWYHGRCVGILQSEAELIDEYVCPQCQST,-0.907 ± 0.097
10,TKKDTKLYCICKTPYDESKFYISCDRCQNWYHGRCVGILQSEAELIDEYVCPQCQST,-0.085 ± 0.079
11,TKKDTKLYCICKTPYDESKFYIICDRCQNWYHGRCVGILQSEAELIDEYVCPQCQST,-0.546 ± 0.2
12,TKKDTKLYCICKTPYDESKFYIRCDRCQNWYHGRCVGILQSEAELIDEYVCPQCQST,-0.126 ± 0.078
13,TKKDTKLYCICKTPYDESKFYIKCDRCQNWYHGRCVGILQSEAELIDEYVCPQCQST,-0.13 ± 0.13
14,TKKDTKLYCICKTCYDESKFYIGCDRCQNWYHGRCVGILQSEAELIDEYVCPQCQST,-0.367 ± 0.11
15,TKKDTKLYCICKTEYDESKFYIGCDRCQNWYHGRCVGILQSEAELIDEYVCPQCQST,-0.163 ± 0.11
16,TKKDTKLYCICKTIYDESKFYIGCDRCQNWYHGRCVGILQSEAELIDEYVCPQCQST,-0.216 ± 0.16
17,TKKDTKLYCTCKTPYDESKFYIGCDRCQNWYHGRCVGILQSEAELIDEYVCPQCQST,-0.249 ± 0.099
18,TKKDTKLYCWCKTPYDESKFYIGCDRCQNWYHGRCVGILQSEAELIDEYVCPQCQST,-0.398 ± 0.096
19,TKKDTKLYCFCKTPYDESKFYIGCDRCQNWYHGRCVGILQSEAELIDEYVCPQCQST,-0.307 ± 0.11
20,TKKDTKLYCICKTPYDEAKFYIGCDRCQNWYHGRCVGILQSEAELIDEYVCPQCQST,-0.217 ± 0.14
21,TKKDTKLYCICKTPYDEDKFYIGCDRCQNWYHGRCVGILQSEAELIDEYVCPQCQST,-0.031 ± 0.19
22,TKKDTKLYCICKTPYDEMKFYIGCDRCQNWYHGRCVGILQSEAELIDEYVCPQCQST,-0.284 ± 0.23
23,HKKDTKLYCICKTPYDESKFYIGCDRCQNWYHGRCVGILQSEAELIDEYVCPQCQST,-0.277 ± 0.26

row,Variant,abundance fitness
1,TKKDTKLYCICKTPYDESKFYIGCDRCQNWYHGRCVGILQSEAELIDEYPCPQCQST,-0.558 ± 0.1
2,TKKDTKLYCICKTPYDESKFYIGCDRCQNWYHGRCVGILQSEAELIDEYMCPQCQST,-0.159 ± 0.11
3,TKKDTKLYCICKTPYDESKFYIGCDRCQNWPHGRCVGILQSEAELIDEYVCPQCQST,-0.787 ± 0.1
4,TKKDTKLYCICKTPYDESKFYIGCDRCQNWVHGRCVGILQSEAELIDEYVCPQCQST,-0.341 ± 0.066
5,TKKDTKLYCICKTPYDESKFYIGCDKCQNWYHGRCVGILQSEAELIDEYVCPQCQST,-0.17 ± 0.099
6,TKKDTKLYCICKTPYDESKFYIGCDRCQNMYHGRCVGILQSEAELIDEYVCPQCQST,0.037 ± 0.1
7,TKKDTKLYCICKTPYDESKFYIGCDRCQNWYHGRCVGILQSEAELISEYVCPQCQST,-0.053 ± 0.067
8,TKKDTKLYCICKTPYDESKFYIGCDRCQNWYHGRCVGILQSEAELIPEYVCPQCQST,-0.107 ± 0.12
9,TKKDTKLYCICKTPYDESKFYIGCDRCQNWYHGRCVGILQCEAELIDEYVCPQCQST,-0.213 ± 0.13
10,TKKDTKLYCICKTPYDESKFYIGCDRCQNWYHGRCVGILQNEAELIDEYVCPQCQST,0.038 ± 0.11
11,TKKDTKLVCICKTPYDESKFYIGCDRCQNWYHGRCVGILQSEAELIDEYVCPQCQST,-0.081 ± 0.11
12,TKKDTKLYCICKTPYDESKFYIGCDRCQNWYHGRCVGTLQSEAELIDEYVCPQCQST,-0.146 ± 0.11
13,TKKDTKLYCICKTPYDESKFYIGCDRCQNWYHGRCVGALQSEAELIDEYVCPQCQST,-0.452 ± 0.1
14,TKKDTKLYCICKTPYDESKFYIGCDRCQNWYHGRCVGFLQSEAELIDEYVCPQCQST,-0.182 ± 0.1
15,TKKDTKLYCICKTPYDESKFYIGCDRCQNWYHGRCVGILQSEAEGIDEYVCPQCQST,-0.053 ± 0.076
16,TKKDTKLYCICKTPKDESKFYIGCDRCQNWYHGRCVGILQSEAELIDEYVCPQCQST,-0.131 ± 0.091
17,TKKDTKLYCICKTPSDESKFYIGCDRCQNWYHGRCVGILQSEAELIDEYVCPQCQST,-0.539 ± 0.073
18,TKKDTKLYCICKTPYDESKFYIGCDRCQNWYHTRCVGILQSEAELIDEYVCPQCQST,-0.238 ± 0.13
19,TKKDTKLYCICKTPYDESKFYIGCDRCQNWYHNRCVGILQSEAELIDEYVCPQCQST,-0.357 ± 0.2
20,TKKDTKLYCICKTPYDESKFYIGCDRCQNWYHSRCVGILQSEAELIDEYVCPQCQST,-0.2 ± 0.071
21,TKKDTKLYCICKTPYDESKFYIGLDRCQNWYHGRCVGILQSEAELIDEYVCPQCQST,-0.884 ± 0.087
22,TKKDTKLYCICKTPYDESKFYIGWDRCQNWYHGRCVGILQSEAELIDEYVCPQCQST,-0.974 ± 0.15
23,TKKDTKLYCICKTPYDESKFYIGVDRCQNWYHGRCVGILQSEAELIDEYVCPQCQST,-0.908 ± 0.11

row,Variant,abundance fitness
1,TKKDTKLYCICKTPYDESKFLIGCDRCQNWYHGRCVGILQSEAELIDEYVCPQCQST,-0.245 ± 0.088
2,TKKDTKLYCICKTPYDESKFFIGCDRCQNWYHGRCVGILQSEAELIDEYVCPQCQST,-0.161 ± 0.16
3,TKKDTKLYCICKTPYDESKFQIGCDRCQNWYHGRCVGILQSEAELIDEYVCPQCQST,-0.359 ± 0.12
4,TKKDTKLYCICKCPYDESKFYIGCDRCQNWYHGRCVGILQSEAELIDEYVCPQCQST,-0.577 ± 0.19
5,TKKDTKLYCICKKPYDESKFYIGCDRCQNWYHGRCVGILQSEAELIDEYVCPQCQST,-0.044 ± 0.11
6,TKKDTKLYCICNTPYDESKFYIGCDRCQNWYHGRCVGILQSEAELIDEYVCPQCQST,-0.233 ± 0.12
7,TKKDTKLYCICETPYDESKFYIGCDRCQNWYHGRCVGILQSEAELIDEYVCPQCQST,-0.025 ± 0.15
8,TKKDTKLYCICKTPYDESKFYIGCDRCMNWYHGRCVGILQSEAELIDEYVCPQCQST,-0.096 ± 0.082
9,TKKDTKLYCICKTPYDESKFYIGCDRCSNWYHGRCVGILQSEAELIDEYVCPQCQST,0.048 ± 0.068
10,TKKDTKLYCICKTPYDESKFYIGCDRCQNWYHGRCVGILQSEAELIDEYVCPQCEST,0.01 ± 0.094
11,TKKDTKLYCIFKTPYDESKFYIGCDRCQNWYHGRCVGILQSEAELIDEYVCPQCQST,-1.12 ± 0.19
12,TKKDTKLYCINKTPYDESKFYIGCDRCQNWYHGRCVGILQSEAELIDEYVCPQCQST,-0.857 ± 0.21
13,TKKDTKLYCIMKTPYDESKFYIGCDRCQNWYHGRCVGILQSEAELIDEYVCPQCQST,-0.803 ± 0.14
14,TKKDTKLYCICKTPYDESKFYIGCDRCQNWYHGRCVGISQSEAELIDEYVCPQCQST,-0.024 ± 0.36
15,TKKDTKLYCICKTPYDESKFYIGCDRCQNWYHGRCVGIGQSEAELIDEYVCPQCQST,-0.116 ± 0.31
16,TKKDTKLYCICKTPYDESKFYIGCDRCQNWYHGRCVGIWQSEAELIDEYVCPQCQST,-0.326 ± 0.45
17,TKKDTKLYCICKTPYDESPFYIGCDRCQNWYHGRCVGILQSEAELIDEYVCPQCQST,-0.637 ± 0.15
18,TKKDTKLYCICKTPYDESKFYIGCDRCQNWYWGRCVGILQSEAELIDEYVCPQCQST,-1.1 ± 0.24
19,TKKDTELYCICKTPYDESKFYIGCDRCQNWYHGRCVGILQSEAELIDEYVCPQCQST,-0.042 ± 0.15
20,TKKDTKLYCICKTPYDESKFYIGCDRCQNWYHGRCVGILQSESELIDEYVCPQCQST,-0.119 ± 0.084
21,TKKDSKLYCICKTPYDESKFYIGCDRCQNWYHGRCVGILQSEAELIDEYVCPQCQST,-0.071 ± 0.057
